Source: patent US20250206828A1, “ANTI-ADENOSINE RECEPTOR (A2aR) ANTIBODIES AND THE USE THEREOF” (Adept Therapeutics Inc., priority 2022, published 2025)
Where a chain is given by its changes, count along the chain named. Names and notes keep the numbering of the source. Where two headings read alike, the source gives them in different places. Each block holds one binder with its values, some of them ahead of it.

Experiments:
[1] = biological target: T1, human adenosine A2A receptor (A2aR) (human, UniProt P29274 1-412); assay: flow cytometry, HEK293-hA2aR cells, supernatant 1 ug/ml
T1 construct: Assays used HEK293 cells stably overexpressing human A2aR (BPS Bioscience 79381), human A2aR-expressing CHO cells, or endogenous A2aR on human PBMC; also called human A2aR; hA2aR

[2] = biological target: T1, human adenosine A2A receptor (A2aR); assay: flow cytometry titration, HEK293-hA2aR cells, purified antibody
[3] = biological target: T1, human adenosine A2A receptor (A2aR); assay: cell-based or functional assay
[4] = biological target: T1, human adenosine A2A receptor (A2aR); assay: flow cytometry, HEK293-hA2aR cells, supernatant 1 ug/ml; remark: listed apart in the source
[5] = biological target: T1, human adenosine A2A receptor (A2aR); assay: cell-based or functional assay; remark: listed apart in the source

T1 sequence (P29274 whole entry): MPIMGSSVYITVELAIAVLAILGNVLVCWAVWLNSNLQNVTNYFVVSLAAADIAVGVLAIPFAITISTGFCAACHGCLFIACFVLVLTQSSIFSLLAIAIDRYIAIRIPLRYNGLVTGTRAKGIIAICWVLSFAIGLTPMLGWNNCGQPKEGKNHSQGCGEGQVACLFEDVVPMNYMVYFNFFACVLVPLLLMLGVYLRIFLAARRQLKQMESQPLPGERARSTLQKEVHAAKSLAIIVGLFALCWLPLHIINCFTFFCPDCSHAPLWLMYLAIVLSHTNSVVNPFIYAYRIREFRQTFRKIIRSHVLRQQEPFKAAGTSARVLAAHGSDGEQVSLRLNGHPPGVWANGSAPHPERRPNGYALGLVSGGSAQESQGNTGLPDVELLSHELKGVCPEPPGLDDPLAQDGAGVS

B1: Hu3F8-H2/Hu3F8-L5 (antibody, human IgG1, V domains shown)
VH: EVQLVQSGAEVKKPGASVKVSCKASGFTFTRYWMNWVRQAPGQGLEWMGRIDPSDSETHYNHKFWGRVTMTVDTSTSTVYMELSSLRSEDTAVYYCLRSLYGKGDYWGQGTTVTVSS
VL: DVVMTQSPLSLPVTPGEPASISCRSSQSIVHSNGNTYLEWYLQKPGQSPQLLIYKVSNRFSGVPDRFSGSGSGTDFTLKISRVEAEDVGVYYCYQGSHVPLTFGGGTKVEIK
notes: Human IgG1 FES (L234F, L235E, P331S) and human Ig kappa constant domains; also called Hu3F8 VH2/VL5
MFI [1]: 1770 MFI
EC50 [2]: 0.9 nM
IC50 of blocking activity, cAMP-Glo, 300 nM NECA, HEK293-hA2aR cells, supernatant [3]: 1.8 nM

B2: Hu3F8-H1/Hu3F8-L5 (antibody, human IgG1, V domains shown)
VH: B1 VH with E1Q, V72R
VL: B1 VL
notes: Human IgG1 FES (L234F, L235E, P331S) and human Ig kappa constant domains; also called Hu3F8 VH1/VL5
MFI [1]: 1790 MFI
EC50 [2]: 0.85 nM
IC50 of blocking activity, cAMP-Glo, 300 nM NECA, HEK293-hA2aR cells, supernatant [3]: 1.4 nM

B3: Hu3F8-H2/Hu3F8-L3 (antibody, human IgG1, V domains shown)
VH: B1 VH
VL: B1 VL with P15L, E17Q, L42Q, K44R, Q50R
notes: Human IgG1 FES (L234F, L235E, P331S) and human Ig kappa constant domains; also called Hu3F8 VH2/VL3
MFI [1]: 1800 MFI
EC50 [2]: 0.66 nM
IC50 of blocking activity, cAMP-Glo, 300 nM NECA, HEK293-hA2aR cells, supernatant [3]: 1.1 nM

B4: Hu3F6-H5/Hu3F6-L8 (antibody, human IgG1, V domains shown)
VH: EVQLVQSGAEVKKPGASVKVSCKTSGFAFTSYWMNWVRQAPGQGLEWIGRIDPSDSEAHYAHKFWGRATLTVDKSSSTVYMELSSLRSEDTAVYYCLRSLYGKGDYWGHGTTVTVSS
VL: B1 VL with I29L, S32R
notes: Human IgG1 FES (L234F, L235E, P331S) and human Ig kappa constant domains; also called Hu3F6 VH5/VL8
EC50 [2]: 0.59 nM
MFI [4]: 1890 MFI
IC50 of blocking activity, cAMP-Glo, 300 nM NECA, HEK293-hA2aR cells, supernatant [5]: 1.1 nM

B7: Hu3F8-H4/Hu3F8-L4 (antibody, human IgG1, V domains shown)
VH: B1 VH with M48I, V68A, M70L, T74K
VL: B1 VL with V2I
notes: Human IgG1 FES (L234F, L235E, P331S) and human Ig kappa constant domains; also called Hu3F8 VH4/VL4
MFI [1]: 1880 MFI
EC50 [2]: 0.79 nM
IC50 of blocking activity, cAMP-Glo, 300 nM NECA, HEK293-hA2aR cells, supernatant [3]: 1 nM

B9: Hu3F8-H1/Hu3F8-L3 (antibody, human IgG1, V domains shown)
VH: B1 VH with E1Q, V72R
VL: B1 VL with P15L, E17Q, L42Q, K44R, Q50R
notes: Human IgG1 FES (L234F, L235E, P331S) and human Ig kappa constant domains
MFI [1]: 1810 MFI
IC50 of blocking activity, cAMP-Glo, 300 nM NECA, HEK293-hA2aR cells, supernatant [3]: 1.5 nM

B13: Hu3F8-H3/Hu3F8-L3 (antibody, human IgG1, V domains shown)
VH: B1 VH with M48I, V68A, M70L
VL: B1 VL with P15L, E17Q, L42Q, K44R, Q50R
notes: Human IgG1 FES (L234F, L235E, P331S) and human Ig kappa constant domains; also called Hu3F8 VH3/VL3
MFI [1]: 1860 MFI
EC50 [2]: 0.69 nM
IC50 of blocking activity, cAMP-Glo, 300 nM NECA, HEK293-hA2aR cells, supernatant [3]: 1.1 nM

B15: Hu3F8-H4/Hu3F8-L3 (antibody, human IgG1, V domains shown)
VH: B1 VH with M48I, V68A, M70L, T74K
VL: B1 VL with P15L, E17Q, L42Q, K44R, Q50R
notes: Human IgG1 FES (L234F, L235E, P331S) and human Ig kappa constant domains; also called Hu3F8 VH4/VL3
MFI [1]: 1910 MFI
EC50 [2]: 0.6 nM
IC50 of blocking activity, cAMP-Glo, 300 nM NECA, HEK293-hA2aR cells, supernatant [3]: 0.7 nM

B16: Hu3F8-H3/Hu3F8-L4 (antibody, human IgG1, V domains shown)
VH: B1 VH with M48I, V68A, M70L
VL: B1 VL with V2I
notes: as for B9
MFI [1]: 1840 MFI
IC50 of blocking activity, cAMP-Glo, 300 nM NECA, HEK293-hA2aR cells, supernatant [3]: 1.7 nM

Continued, values first:

MFI [1]: 1900 MFI
IC50 of blocking activity, cAMP-Glo, 300 nM NECA, HEK293-hA2aR cells, supernatant [3]: 1.6 nM
B5: Hu3F8-H5/Hu3F8-L5 (antibody, human IgG1, V domains shown)
VH: B1 VH with M48I, H62A, V68A, M70L, T74K
VL: B1 VL
notes: as for B9

MFI [1]: 1840 MFI
IC50 of blocking activity, cAMP-Glo, 300 nM NECA, HEK293-hA2aR cells, supernatant [3]: 1.5 nM
B6: Hu3F8-H5/Hu3F8-L3 (antibody, human IgG1, V domains shown)
VH: B1 VH with M48I, H62A, V68A, M70L, T74K
VL: B1 VL with P15L, E17Q, L42Q, K44R, Q50R
notes: as for B9

MFI [1]: 1880 MFI
IC50 of blocking activity, cAMP-Glo, 300 nM NECA, HEK293-hA2aR cells, supernatant [3]: 2.3 nM
B8: Hu3F8-H6/Hu3F8-L4 (antibody, human IgG1, V domains shown)
VH: EVQLVQSGAEVKKPGESLRISCKASGFTFTRYWMNWVRQMPGKGLEWIGRIDPSDSETHYNHKFWGHATLSVDKSSSTVYLQWSSLKASDTAMYYCLRSLYGKGDYWGQGTTVTVSS
VL: B1 VL with V2I
notes: as for B9

MFI [1]: 1880 MFI
EC50 [2]: 0.59 nM
IC50 of blocking activity, cAMP-Glo, 300 nM NECA, HEK293-hA2aR cells, supernatant [3]: 1.2 nM
B10: Hu3F8-H6/Hu3F8-L3 (antibody, human IgG1, V domains shown)
VH: B8 VH
VL: B1 VL with P15L, E17Q, L42Q, K44R, Q50R
notes: Human IgG1 FES (L234F, L235E, P331S) and human Ig kappa constant domains; also called Hu3F8 VH6/VL3

MFI [1]: 1890 MFI
EC50 [2]: 0.75 nM
IC50 of blocking activity, cAMP-Glo, 300 nM NECA, HEK293-hA2aR cells, supernatant [3]: 1.5 nM
B11: Hu3F8-H4/Hu3F8-L5 (antibody, human IgG1, V domains shown)
VH: B1 VH with M48I, V68A, M70L, T74K
VL: B1 VL
notes: Human IgG1 FES (L234F, L235E, P331S) and human Ig kappa constant domains; also called Hu3F8 VH4/VL5

MFI [1]: 1900 MFI
EC50 [2]: 0.65 nM
IC50 of blocking activity, cAMP-Glo, 300 nM NECA, HEK293-hA2aR cells, supernatant [3]: 1.5 nM
B12: Hu3F8-H6/Hu3F8-L5 (antibody, human IgG1, V domains shown)
VH: B8 VH
VL: B1 VL
notes: Human IgG1 FES (L234F, L235E, P331S) and human Ig kappa constant domains; also called Hu3F8 VH6/VL5

MFI [1]: 1840 MFI
IC50 of blocking activity, cAMP-Glo, 300 nM NECA, HEK293-hA2aR cells, supernatant [3]: 2.2 nM
B14: Hu3F8-H5/Hu3F8-L4 (antibody, human IgG1, V domains shown)
VH: B1 VH with M48I, H62A, V68A, M70L, T74K
VL: B1 VL with V2I
notes: as for B9
